In article PMC11879689, “Integrative in silico and biochemical analyses demonstrate direct Arl3-mediated ODA16 release from the intraflagellar transport machinery” (The Journal of Biological Chemistry, 2025):
Like-named read-outs stand apart in the source and are kept apart here. Values belong to the molecule of their own block, whether it stands above or below them.

Assays:
[1] = target: CrODA16 C-terminal β-propeller, CrODA16C(80-423) (Chlamydomonas reinhardtii) (UniProt Q3Y8L7); assay: ITC; 25 °C, MicroCal iTC200; 10 mM HEPES pH 7.5, 200 mM NaCl, 0.5 mM TCEP; 20 μM CrODA16 in the cell, 200 μM IFT46 peptide or CrIDA3 in the syringe
[2] = target: T1, full-length CrODA16 (CrODA16fl) (Chlamydomonas reinhardtii, UniProt Q3Y8L7 1-446); assay: as above
T1 construct: ODA16, Chlamydomonas reinhardtii, full length (N-terminal domain residues 1-80, C-terminal beta-propeller residues 80-445); it may be the same protein as CrODA16-HT
T1 sequence (looked up): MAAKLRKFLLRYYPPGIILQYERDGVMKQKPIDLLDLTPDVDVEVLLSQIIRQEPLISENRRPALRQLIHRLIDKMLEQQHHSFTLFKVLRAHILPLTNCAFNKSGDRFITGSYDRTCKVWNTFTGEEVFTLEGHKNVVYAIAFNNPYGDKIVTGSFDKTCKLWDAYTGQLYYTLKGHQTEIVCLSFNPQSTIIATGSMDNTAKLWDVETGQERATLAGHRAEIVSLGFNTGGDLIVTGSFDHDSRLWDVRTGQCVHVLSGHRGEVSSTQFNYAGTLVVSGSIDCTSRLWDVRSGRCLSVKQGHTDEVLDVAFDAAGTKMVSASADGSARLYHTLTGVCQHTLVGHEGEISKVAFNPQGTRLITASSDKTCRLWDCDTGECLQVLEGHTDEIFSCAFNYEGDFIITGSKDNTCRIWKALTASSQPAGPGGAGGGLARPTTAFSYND

[3] = target: ODA16 (Chlamydomonas reinhardtii) (UniProt Q3Y8L7); assay: ITC; conditions: cited from earlier work
[4] = target: T2, hexa-His-tagged CrODA16 (CrODA16-HT) (Chlamydomonas reinhardtii, UniProt Q3Y8L7 1-446); assay: pull-down; CrODA16-HT (10 μM) immobilised on nickel resin, one prey (20–30 μM), 1 h 4 °C; 10 mM HEPES pH 7.5, 200 mM NaCl, 2 mM MgCl2, 1 mM DTT; eluted with 500 mM imidazole, SDS-PAGE; CrArl3 nucleotide-free; conditions: both partners purified
T2 construct: ODA16, Chlamydomonas reinhardtii; Bait on nickel resin
T2 sequence (looked up): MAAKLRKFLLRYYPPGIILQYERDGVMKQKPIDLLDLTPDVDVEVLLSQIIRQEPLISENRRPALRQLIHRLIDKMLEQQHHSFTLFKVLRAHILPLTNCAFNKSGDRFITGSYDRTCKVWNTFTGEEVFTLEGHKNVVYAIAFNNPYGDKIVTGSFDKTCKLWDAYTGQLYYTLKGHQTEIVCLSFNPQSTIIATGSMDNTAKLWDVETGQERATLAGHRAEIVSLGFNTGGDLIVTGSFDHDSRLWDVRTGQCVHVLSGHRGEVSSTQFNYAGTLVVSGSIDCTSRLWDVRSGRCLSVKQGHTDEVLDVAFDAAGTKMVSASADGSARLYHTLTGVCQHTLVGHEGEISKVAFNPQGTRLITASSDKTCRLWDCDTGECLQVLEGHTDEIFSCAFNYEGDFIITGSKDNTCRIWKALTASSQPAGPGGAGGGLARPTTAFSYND

[5] = target: T2, hexa-His-tagged CrODA16 (CrODA16-HT); assay: pull-down; CrODA16-HT immobilised on nickel resin; two preys added together (CrIFT46 with CrIDA3, also at 3:1 excess of CrIFT46; CrIFT46 with CrArl3), beside each prey alone; conditions: both partners purified
[6] = target: T1, full-length CrODA16 (CrODA16fl); assay: pull-down; competitive binding (titration) assay: GST-tagged bait (10 μM) pre-complexed with CrODA16 (20 μM) on GSH resin, washed, then untagged competitor at rising concentrations, 1 h 4 °C; eluted with 33 mM glutathione, SDS-PAGE; conditions: both partners purified

Molecule: CrIDA3 (residues 1-166 and 241-366), untagged (domain or fragment)
Kd [1]: 288 nM
Kd [2]: 1770 nM
stoichiometry N [2]: 0.996

Molecule: IFT46 (from UniProt A2T2X4)
Kd [3]: 200 nM

B1: CrIFT46(23-44) peptide (peptide, UniProt A2T2X4 23-44, looked up)
peptide: RSQVVQNQPHDEEVNLSESESF
notes: IFT46, Chlamydomonas reinhardtii, residues 23-44; R23 and F44 mark the ends of the peptide; also called IFT46 peptide; source: synthetic peptide
Kd ([2]; both partners purified): 1000 ± 380 nM

B2: CrArl3_Q70L (GTP-locked, full length) (enzyme, Chlamydomonas reinhardtii, UniProt A8ISN6 1-177, looked up)
chain: MGLLSLIRGLKKKEGEARILVLGLDNAGKTTILKALSEEDITTITPTQGFNIKSLSRDGFNLKIWDIGGLKSIRPYWRNYFDQTDALIYVIDSADSKRLSESEFELTELLQEEKMTGVPLLVFANKQDLVGALAADEIASTLDLTSIRDRPWQIQACSAKQGTGLKEGMEWMMKQVK
notes: Arl3, Chlamydomonas reinhardtii, with Q70L; codon-optimised synthetic gene; Cloned with C-terminal TEV-His8; Used nucleotide-free or loaded with GTP; also called CrArl3_Q70L-FL
binding result [4]: binds

The next lines start with the values.

binding result [5]: binds
binding result [6]: binds
B3: CrIFT46 (wild type, untagged) (natural protein, Chlamydomonas reinhardtii, UniProt A2T2X4 1-344, looked up)
chain: MDDSMDYPDRDGDDLDQFQGTARSQVVQNQPHDEEVNLSESESFAGADEPPAAPRDASLIESHDMDEGPAAPARTLSPTGYEAGKHAPGGIANSDEAPPGAYNAQEYKHLNVGEDVRELFSYIGRYKPQTVELDTRIKPFIPDYIPAVGGIDEFIKVPRPDTKPDYLGLKVLDEPAAKQSDPTVLTLQLRQLSKEAPGAKADMVGRLEHTDENKAKKIQQWIASINDIHKAKPAATVNYSKRMPEIEALMQEWPPEVETFLKTMHMPSGDVELDIKTYARLVCTLLDIPVYDDPVESLHVLFTLYLEFKNNPIFRQHMEMENKLDGMSGGGGGMMGGGADVLGL
notes: IFT46, Chlamydomonas reinhardtii; also called WT CrIFT46

binding result [6]: binds
B4: GST-CrIFT46 (natural protein, Chlamydomonas reinhardtii, UniProt A2T2X4 1-344, looked up)
chain: MDDSMDYPDRDGDDLDQFQGTARSQVVQNQPHDEEVNLSESESFAGADEPPAAPRDASLIESHDMDEGPAAPARTLSPTGYEAGKHAPGGIANSDEAPPGAYNAQEYKHLNVGEDVRELFSYIGRYKPQTVELDTRIKPFIPDYIPAVGGIDEFIKVPRPDTKPDYLGLKVLDEPAAKQSDPTVLTLQLRQLSKEAPGAKADMVGRLEHTDENKAKKIQQWIASINDIHKAKPAATVNYSKRMPEIEALMQEWPPEVETFLKTMHMPSGDVELDIKTYARLVCTLLDIPVYDDPVESLHVLFTLYLEFKNNPIFRQHMEMENKLDGMSGGGGGMMGGGADVLGL
notes: IFT46, Chlamydomonas reinhardtii; also called GST-tagged CrIFT46
